From patent publication US20250296971A1, “GASTRIC INHIBITORY PEPTIDE RECEPTOR LIGANDS” (priority 2021, published 2025) come the findings set out here.

B1: Ac-Asp-Trp-5Clw-Hyp-Glu-leu-[Cys(2Lut)-Thp-Glu-Ile-Cys]-NH2 (peptide)
peptide: Ac-DW[Trp(5-Cl)][Hyp]E[dL]C[Thp]EIC-NH2
modifications: linker 7-11 via Pyridine(2,6-diCH2)
SMILES: CC[C@H](C)[C@@H]1NC(=O)[C@H](CCC(=O)O)NC(=O)C2(CCOCC2)NC(=O)[C@@H](NC(=O)[C@@H](CC(C)C)NC(=O)[C@H](CCC(=O)O)NC(=O)[C@@H]2C[C@@H](O)CN2C(=O)[C@H](Cc2c[nH]c3ccc(Cl)cc23)NC(=O)[C@H](Cc2c[nH]c3ccccc23)NC(=O)[C@H](CC(=O)O)NC(C)=O)CSCc2cccc(n2)CSC[C@@H](C(N)=O)NC1=O
B2: Ac-Asp-Trp-5Clw-Hyp-Glu-leu-[Cys(2Lut)-Thp-Ile-Ile-Cys]-NH2 (peptide)
peptide: Ac-DW[Trp(5-Cl)][Hyp]E[dL]C[Thp]IIC-NH2
modifications: linker 7-11 via Pyridine(2,6-diCH2)
SMILES: CC[C@H](C)[C@@H]1NC(=O)[C@H]([C@@H](C)CC)NC(=O)C2(CCOCC2)NC(=O)[C@@H](NC(=O)[C@@H](CC(C)C)NC(=O)[C@H](CCC(=O)O)NC(=O)[C@@H]2C[C@@H](O)CN2C(=O)[C@H](Cc2c[nH]c3ccc(Cl)cc23)NC(=O)[C@H](Cc2c[nH]c3ccccc23)NC(=O)[C@H](CC(=O)O)NC(C)=O)CSCc2cccc(n2)CSC[C@@H](C(N)=O)NC1=O
B3: Ac-Asp-Trp-5Clw-Hyp-Glu-leu-[Cys(2Lut)-Thp-Phe-Ile-Cys]-NH2 (peptide)
peptide: Ac-DW[Trp(5-Cl)][Hyp]E[dL]C[Thp]FIC-NH2
modifications: linker 7-11 via Pyridine(2,6-diCH2)
SMILES: CC[C@H](C)[C@@H]1NC(=O)[C@H](Cc2ccccc2)NC(=O)C2(CCOCC2)NC(=O)[C@@H](NC(=O)[C@@H](CC(C)C)NC(=O)[C@H](CCC(=O)O)NC(=O)[C@@H]2C[C@@H](O)CN2C(=O)[C@H](Cc2c[nH]c3ccc(Cl)cc23)NC(=O)[C@H](Cc2c[nH]c3ccccc23)NC(=O)[C@H](CC(=O)O)NC(C)=O)CSCc2cccc(n2)CSC[C@@H](C(N)=O)NC1=O
B4: Ac-Asp-Trp-5Clw-Hyp-Glu-leu-[Cys(2Lut)-Thp-Arg-Ile-Cys]-NH2 (peptide)
peptide: Ac-DW[Trp(5-Cl)][Hyp]E[dL]C[Thp]RIC-NH2
modifications: linker 7-11 via Pyridine(2,6-diCH2)
SMILES: CC[C@H](C)[C@@H]1NC(=O)[C@H](CCCNC(=N)N)NC(=O)C2(CCOCC2)NC(=O)[C@@H](NC(=O)[C@@H](CC(C)C)NC(=O)[C@H](CCC(=O)O)NC(=O)[C@@H]2C[C@@H](O)CN2C(=O)[C@H](Cc2c[nH]c3ccc(Cl)cc23)NC(=O)[C@H](Cc2c[nH]c3ccccc23)NC(=O)[C@H](CC(=O)O)NC(C)=O)CSCc2cccc(n2)CSC[C@@H](C(N)=O)NC1=O
B5: DOTA-Ttds-Asp-Trp-5Clw-Pro-Glu-leu-[Dap(3MeBz)-Aib-Leu-Ile-AET] (peptide)
peptide: {DOTA-Ttds}-DW[Trp(5-Cl)]PE[dL][Dap][Aib]LI[Cysteamide]
modifications: linker (positions not given here) via 3‑methylbenzoyl; not fully specified (bridges); printed as DOTA-Ttds-Asp-Trp-5Clw-Pro-Glu-leu-[Dap(3MeBz)-Aib-Leu-Ile-AET]
B6: Ac-Asp-1Ni-5Clw-Hyp-Glu-leu-[Cys(2Lut)-Thp-Leu-Ile-Cys]-NH2 (peptide)
peptide: Ac-D[1Nal][Trp(5-Cl)][Hyp]E[dL]C[Thp]LIC-NH2
modifications: linker 7-11 via Pyridine(2,6-diCH2)
SMILES: CC[C@H](C)[C@@H]1NC(=O)[C@H](CC(C)C)NC(=O)C2(CCOCC2)NC(=O)[C@@H](NC(=O)[C@@H](CC(C)C)NC(=O)[C@H](CCC(=O)O)NC(=O)[C@@H]2C[C@@H](O)CN2C(=O)[C@H](Cc2c[nH]c3ccc(Cl)cc23)NC(=O)[C@H](Cc2cccc3ccccc23)NC(=O)[C@H](CC(=O)O)NC(C)=O)CSCc2cccc(n2)CSC[C@@H](C(N)=O)NC1=O
B7: DOTA-APAc-Asp-Trp-5Clw-Hyp-Glu-leu-[Cys(2Lut)-Thp-Leu-Ile-AET] (peptide)
peptide: {DOTA-APAc″}-DW[Trp(5-Cl)][Hyp]E[dL]C[Thp]LI[Cysteamide]
modifications: linker (positions not given here) via Pyridine(2,6-diCH2); not fully specified (bridges); printed as DOTA-APAc-Asp-Trp-5Clw-Hyp-Glu-leu-[Cys(2Lut)-Thp-Leu-Ile-AET]

*1 amine or outer side, *2 acyl side, *3 side chain or, on linkers, in order; H or OH if unused. Bridges are numbered along the chain shown (N, C = ends). Primed or numbered codes have the meaning given here. [ ]: non-standard residue; d: D form. The star is where a group is joined. 3‑methylbenzoyl = 3-methylbenzoyl group bridging Dap and AET, O=C(c1cccc(C[*:3])c1)[*:2]; Ttds = 1,13-diamino-4,7,10-trioxatridecan-succinamic acid, NCCCOCCOCCOCCCNC(=O)CCC(=O)*; APAc″ = 4-amino-1-carboxymethylpiperidine, NC1CCN(CC(=O)*)CC1; Pro(trans-4-NH2) = O=C([C@@H]1C[C@@H](N[*:3])CN1[*:1])[*:2]; DOTA = O=C(O)CN1CCN(CC(=O)O)CCN(CC(=O)*)CCN(CC(=O)O)CC1; Trp(5-Cl) = N[C@@H](Cc1c[nH]c2ccc(Cl)cc12)C(=O)O; Pyridine(2,6-diCH2) = c1cc(C[*:1])nc(C[*:2])c1; 2Lut″ = 2,6-lutidylidene linking two thiols; 1Nal = N[C@@H](Cc1cccc2ccccc12)C(=O)O; mli = maleimide bridging scaffold; Hyp = O=C(O)[C@@H]1C[C@@H](O)CN1; Cha = N[C@@H](CC1CCCCC1)C(=O)O; Cysteamide = C(CS[*:3])N[*:1]; hCys = N[C@@H](CCS)C(=O)O; Thp = NC1(C(=O)O)CCOCC1; Dap = NC[C@H](N)C(=O)O; Aib = CC(C)(N)C(=O)O

human Gastric Inhibitory Peptide Receptor (GIPR) (human), sequence (P48546 22-466 limits assumed): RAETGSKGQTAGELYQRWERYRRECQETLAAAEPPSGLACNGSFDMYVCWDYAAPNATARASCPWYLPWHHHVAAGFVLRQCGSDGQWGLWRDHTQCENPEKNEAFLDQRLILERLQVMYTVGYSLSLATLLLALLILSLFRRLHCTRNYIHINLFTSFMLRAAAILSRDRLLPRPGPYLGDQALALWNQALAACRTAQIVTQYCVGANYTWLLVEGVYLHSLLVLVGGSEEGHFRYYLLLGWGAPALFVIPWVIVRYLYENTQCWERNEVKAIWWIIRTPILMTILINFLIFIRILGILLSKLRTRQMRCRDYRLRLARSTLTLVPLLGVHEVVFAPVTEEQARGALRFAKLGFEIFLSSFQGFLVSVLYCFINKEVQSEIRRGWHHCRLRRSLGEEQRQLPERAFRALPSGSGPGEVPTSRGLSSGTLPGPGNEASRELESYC
human Gastric Inhibitory Peptide Receptor (human), sequence (P48546 22-466 limits assumed): as above

The first test has as its target human Gastric Inhibitory Peptide Receptor (GIPR) (human) (UniProt P48546). Nature of the test: FACS competition vs biotinylated GIP-057 on CHO-K1-hGIPR cells; category A: pIC50 >8.0.
Consider B1, for which the pIC50 is above 8 pic50.

Regarding Ac-DW[Trp(5-Cl)][Hyp]A[dL]C[Thp]LIC-NH2 (linker 7-11 via Pyridine(2,6-diCH2)) [Ac-Asp-Trp-5Clw-Hyp-Ala-leu-[Cys(2Lut)-Thp-Leu-Ile-Cys]-NH2], the pIC50 was above 8 pic50.

Take B2: the pIC50 was above 8 pic50.

On to Ac-DW[Trp(5-Cl)][Pro(trans-4-NH2)]E[dL]C[Thp]LIC-NH2 (linker 7-11 via 2Lut″) [Ac-Asp-Trp-5Clw-Tap-Glu-leu-[Cys(2Lut)-Thp-Leu-Ile-Cys]-NH2], for which the pIC50 was above 8 pic50.

Molecule Ac-DW[Trp(5-Cl)][Hyp]E[dL]C[Thp]LI[hCys]-NH2 (linker 7-11 via mli) [Ac-Asp-Trp-5Clw-Hyp-Glu-leu-[Cys(mli)-Thp-Leu-Ile-Hcy]-NH2] gave a pIC50 above 8 pic50.

The molecule Ac-[dD]W[Trp(5-Cl)][Hyp]E[dL]C[Thp]LIC-NH2 (linker 7-11 via Pyridine(2,6-diCH2)) [Ac-asp-Trp-5Clw-Hyp-Glu-leu-[Cys(2Lut)-Thp-Leu-Ile-Cys]-NH2] showed a pIC50 above 8 pic50.

Take B3: the pIC50 is above 8 pic50.

B4 came in with a pIC50 above 8 pic50.

In turn, B5 registered a pIC50 above 8 pic50.

Molecule Ac-DW[Trp(5-Cl)][Hyp]E[dL]C[Thp][Cha]IC-NH2 (linker 7-11 via Pyridine(2,6-diCH2)) [Ac-Asp-Trp-5Clw-Hyp-Glu-leu-[Cys(2Lut)-Thp-Cha-Ile-Cys]-NH2] displayed a pIC50 above 8 pic50.

For B6, the pIC50 is above 8 pic50.

The target in a further test is biotinylated extracellular domain of the human GIP receptor (bioGIPR) (human) (UniProt P48546). Nature of the test: SPR single cycle kinetics, bioGIPR captured on chip; category A: pKD >9.0.
biotinylated extracellular domain of the human GIP receptor (bioGIPR) (human), sequence (P48546 24-138 limits assumed): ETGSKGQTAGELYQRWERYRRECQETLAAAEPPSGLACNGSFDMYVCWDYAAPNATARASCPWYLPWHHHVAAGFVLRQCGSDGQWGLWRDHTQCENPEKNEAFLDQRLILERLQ
For B7, the pKD is above 9 pkd.

The next test has as its target human Gastric Inhibitory Peptide Receptor (human) (UniProt P48546). Briefly: FACS competition with GIP-057 on CHO-K1-hGIPR cells; pIC50 category A: >8.0.
B7 returned a pIC50 above 8 pic50.

Another test concerns the target biotinylated extracellular domain of the human GIP receptor (bioGIPR) (human) (UniProt P48546). Briefly: SPR single cycle kinetics, bioGIPR captured on chip; category A: t1/2 >15 min.
Regarding B7, the t1/2 is above 15 min.
